This experiment deals with T1, human calcitonin receptor (human, UniProt P30988 25-474).
T1 construct: whole, on cells; also called hCT-R; hCTR
T1 sequence (looked up): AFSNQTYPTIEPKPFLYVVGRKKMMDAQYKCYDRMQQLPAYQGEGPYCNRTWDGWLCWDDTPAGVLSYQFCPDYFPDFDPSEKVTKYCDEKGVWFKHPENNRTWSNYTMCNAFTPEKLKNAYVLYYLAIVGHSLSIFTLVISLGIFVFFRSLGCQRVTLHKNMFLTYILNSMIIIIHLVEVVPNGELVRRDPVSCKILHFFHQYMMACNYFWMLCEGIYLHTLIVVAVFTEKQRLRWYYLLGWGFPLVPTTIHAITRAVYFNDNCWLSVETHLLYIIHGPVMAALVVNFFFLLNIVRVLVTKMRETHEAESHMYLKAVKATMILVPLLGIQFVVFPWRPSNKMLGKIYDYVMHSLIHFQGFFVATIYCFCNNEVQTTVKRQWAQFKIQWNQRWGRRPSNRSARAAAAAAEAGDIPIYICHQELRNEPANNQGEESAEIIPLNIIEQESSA
In words: whole-cell competition vs 125I-human calcitonin (Assay VIIa). The gist of the method: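 BHK tk'ts 13 cells stably co-expressing human calcitonin receptor and a CRE-luciferase reporter, seeded overnight at 37 °C. Bound tracer counted by scintillation after cold HBSS washes and NaOH/SDS lysis; IC₅₀ from one-site competition fit taken as receptor affinity.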

Numbered stars: 1 amine (or outer) side, 2 acyl side, 3 side chain; on linkers, the order of the positions; unused ones are H or OH. * marks the point of attachment. C20 diacid = O=C(O)CCCCCCCCCCCCCCCCCCC(=O)*; C18 diacid = O=C(O)CCCCCCCCCCCCCCCCC(=O)*; C16 diacid = O=C(O)CCCCCCCCCCCCCCC(=O)*; γGlu = O=C(O)[C@H](CCC(=O)[*:2])N[*:1]; C14 diacid = O=C(O)CCCCCCCCCCCCC(=O)*; C12 diacid = O=C(O)CCCCCCCCCCC(=O)*; Palmitoyl = CCCCCCCCCCCCCCCC(=O)*; AEEA = NCCOCCOCC(=O)O

B1: [N-terminal(C20 diacid-gGlu), 23Y, 30S, 31G]mimylin (peptide)
peptide: {C20 diacid-γGlu}-EASELSTAALGRLSAELHELATYPRTETGSGSP-NH2
SMILES: CC(C)C[C@H](NC(=O)[C@H](C)NC(=O)[C@H](C)NC(=O)[C@@H](NC(=O)[C@H](CO)NC(=O)[C@H](CC(C)C)NC(=O)[C@H](CCC(=O)O)NC(=O)[C@H](CO)NC(=O)[C@H](C)NC(=O)[C@H](CCC(=O)O)NC(=O)CC[C@H](NC(=O)CCCCCCCCCCCCCCCCCCC(=O)O)C(=O)O)[C@@H](C)O)C(=O)NCC(=O)N[C@@H](CCCNC(=N)N)C(=O)N[C@@H](CC(C)C)C(=O)N[C@@H](CO)C(=O)N[C@@H](C)C(=O)N[C@@H](CCC(=O)O)C(=O)N[C@@H](CC(C)C)C(=O)N[C@@H](Cc1c[nH]cn1)C(=O)N[C@@H](CCC(=O)O)C(=O)N[C@@H](CC(C)C)C(=O)N[C@@H](C)C(=O)N[C@H](C(=O)N[C@@H](Cc1ccc(O)cc1)C(=O)N1CCC[C@H]1C(=O)N[C@@H](CCCNC(=N)N)C(=O)N[C@H](C(=O)N[C@@H](CCC(=O)O)C(=O)N[C@H](C(=O)NCC(=O)N[C@@H](CO)C(=O)NCC(=O)N[C@@H](CO)C(=O)N1CCC[C@H]1C(N)=O)[C@@H](C)O)[C@@H](C)O)[C@@H](C)O
notes: also called Ex. #34
For orientation: IC50 means the midpoint of a concentration-inhibition curve. B1: the IC50 stood at 2.27 nM.

B2: [N-terminal(C12 diacid)]mimylin (peptide)
peptide: {C12 diacid}-EASELSTAALGRLSAELHELATLPRTETGPESP-NH2
notes: also called Ex. #6
Turning to B2, the half-maximal inhibitory concentration (IC50) came to 5.68 nM.

B3: [N-terminal(C16)]mimylin (peptide)
peptide: Palmitoyl-EASELSTAALGRLSAELHELATLPRTETGPESP-NH2
notes: also called Ex. #7
In the case of B3, the IC50 was determined as 0.834 nM.

B4: [N-terminal(C16 diacid)]mimylin (peptide)
peptide: {C16 diacid}-EASELSTAALGRLSAELHELATLPRTETGPESP-NH2
notes: also called Ex. #3
Turning to B4, the IC50 worked out at 0.413 nM.

B5: [N-terminal(C14 diacid-2xgGlu-4xOEG)]mimylin (peptide)
peptide: {C14 diacid-γGlu-γGlu-AEEA-AEEA-AEEA-AEEA}-EASELSTAALGRLSAELHELATLPRTETGPESP-NH2
notes: also called Ex. #5
B5: the 50% inhibitory concentration (IC50) came out at 6.51 nM.

B6: [N-terminal(C14 diacid)]mimylin (peptide)
peptide: {C14 diacid}-EASELSTAALGRLSAELHELATLPRTETGPESP-NH2
notes: also called Ex. #4
Take B6: the IC50 is 1.05 nM.

B7: [N-terminal(C20 diacid-gGlu-3xOEG), des1, 30S, 31G]mimylin (peptide)
peptide: {C20 diacid-γGlu-AEEA-AEEA-AEEA}-ASELSTAALGRLSAELHELATLPRTETGSGSP-NH2
notes: also called Ex. #43
As for B7, the IC50 was 0.352 nM.

B8: [N-terminal(C14 diacid-gGlu), des1]mimylin (peptide)
peptide: {C14 diacid-γGlu}-ASELSTAALGRLSAELHELATLPRTETGPESP-NH2
notes: also called Ex. #19
Take B8: the IC50 came to 0.515 nM.

B9: [N-terminal(C18 diacid)]mimylin (peptide)
peptide: {C18 diacid}-EASELSTAALGRLSAELHELATLPRTETGPESP-NH2
SMILES: CC(C)C[C@H](NC(=O)[C@H](C)NC(=O)[C@H](C)NC(=O)[C@@H](NC(=O)[C@H](CO)NC(=O)[C@H](CC(C)C)NC(=O)[C@H](CCC(=O)O)NC(=O)[C@H](CO)NC(=O)[C@H](C)NC(=O)[C@H](CCC(=O)O)NC(=O)CCCCCCCCCCCCCCCCC(=O)O)[C@@H](C)O)C(=O)NCC(=O)N[C@@H](CCCNC(=N)N)C(=O)N[C@@H](CC(C)C)C(=O)N[C@@H](CO)C(=O)N[C@@H](C)C(=O)N[C@@H](CCC(=O)O)C(=O)N[C@@H](CC(C)C)C(=O)N[C@@H](Cc1c[nH]cn1)C(=O)N[C@@H](CCC(=O)O)C(=O)N[C@@H](CC(C)C)C(=O)N[C@@H](C)C(=O)N[C@H](C(=O)N[C@@H](CC(C)C)C(=O)N1CCC[C@H]1C(=O)N[C@@H](CCCNC(=N)N)C(=O)N[C@H](C(=O)N[C@@H](CCC(=O)O)C(=O)N[C@H](C(=O)NCC(=O)N1CCC[C@H]1C(=O)N[C@@H](CCC(=O)O)C(=O)N[C@@H](CO)C(=O)N1CCC[C@H]1C(N)=O)[C@@H](C)O)[C@@H](C)O)[C@@H](C)O
notes: also called Ex. #2
In the case of B9, the IC50 worked out at 0.798 nM.

The values are drawn from patent US20160272683A1 (Novo Nordisk, published 2016).
